Test results as given in IntAct's records for PubMed 31515488.

B1: Protein DBF4 homolog A (Homo sapiens), Q9UBU7 (parent)
chain: MNSGAMRIHSKGHFQGGIQVKNEKNRPSLKSLKTDNRPEKSKCKPLWGKVFYLDLPSVTISEKLQKDIKDLGGRVEEFLSKDISYLISNKKEAKFAQTLGRISPVPSPESAYTAETTSPHPSHDGSSFKSPDTVCLSRGKLLVEKAIKDHDFIPSNSILSNALSWGVKILHIDDIRYYIEQKKKELYLLKKSSTSVRDGGKRVGSGAQKTRTGRLKKPFVKVEDMSQLYRPFYLQLTNMPFINYSIQKPCSPFDVDKPSSMQKQTQVKLRIQTDGDKYGGTSIQLQLKEKKKKGYCECCLQKYEDLETHLLSEQHRNFAQSNQYQVVDDIVSKLVFDFVEYEKDTPKKKRIKYSVGSLSPVSASVLKKTEQKEKVELQHISQKDCQEDDTTVKEQNFLYKETQETEKKLLFISEPIPHPSNELRGLNEKMSNKCSMLSTAEDDIRQNFTQLPLHKNKQECILDISEHTLSENDLEELRVDHYKCNIQASVHVSDFSTDNSGSQPKQKSDTVLFPAKDLKEKDLHSIFTHDSGLITINSSQEHLTVQAKAPFHTPPEEPNECDFKNMDSLPSGKIHRKVKIILGRNRKENLEPNAEFDKRTEFITQEENRICSSPVQSLLDLFQTSEEKSEFLGFTSYTEKSGICNVLDIWEEENSDNLLTAFFSSPSTSTFTGF
B2: Tuftelin-interacting protein 11 (Homo sapiens), Q9UBB9 (parent)
chain: MSLSHLYRDGEGRIDDDDDERENFEITDWDLQNEFNPNRQRHWQTKEEATYGVWAERDSDDERPSFGGKRARDYSAPVNFISAGLKKGAAEEAELEDSDDEEKPVKQDDFPKDFGPRKLKTGGNFKPSQKGFAGGTKSFMDFGSWERHTKGIGQKLLQKMGYVPGRGLGKNAQGIINPIEAKQRKGKGAVGAYGSERTTQSMQDFPVVDSEEEAEEEFQKELSQWRKDPSGSKKKPKYSYKTVEELKAKGRISKKLTAPQKELSQVKVIDMTGREQKVYYSYSQISHKHNVPDDGLPLQSQQLPQSGKEAKAPGFALPELEHNLQLLIDLTEQEIIQNDRQLQYERDMVVNLFHELEKMTEVLDHEERVISNLSKVLEMVEECERRMQPDCSNPLTLDECARIFETLQDKYYEEYRMSDRVDLAVAIVYPLMKEYFKEWDPLKDCTYGTEIISKWKSLLENDQLLSHGGQDLSADAFHRLIWEVWMPFVRNIVTQWQPRNCDPMVDFLDSWVHIIPVWILDNILDQLIFPKLQKEVENWNPLTDTVPIHSWIHPWLPLMQARLEPLYSPIRSKLSSALQKWHPSDSSAKLILQPWKDVFTPGSWEAFMVKNIVPKLGMCLGELVINPHQQHMDAFYWVIDWEGMISVSSLVGLLEKHFFPKWLQVLCSWLSNSPNYEEITKWYLGWKSMFSDQVLAHPSVKDKFNEALDIMNRAVSSNVGAYMQPGARENIAYLTHTERRKDFQYEAMQERREAENMAQRGIGVAASSVPMNFKDLIETKAEEHNIVFMPVIGKRHEGKQLYTFGRIVIYIDRGVVFVQGEKTWVPTSLQSLIDMAK
partner: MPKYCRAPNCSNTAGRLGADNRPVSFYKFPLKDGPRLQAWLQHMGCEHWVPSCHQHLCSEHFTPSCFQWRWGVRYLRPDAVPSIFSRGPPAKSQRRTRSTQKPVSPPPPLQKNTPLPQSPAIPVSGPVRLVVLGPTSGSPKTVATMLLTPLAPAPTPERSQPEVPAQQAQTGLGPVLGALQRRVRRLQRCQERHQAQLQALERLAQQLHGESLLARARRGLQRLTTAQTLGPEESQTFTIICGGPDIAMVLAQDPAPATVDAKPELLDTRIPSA
B3: Zinc finger protein Aiolos (Homo sapiens), Q9UKT9 (parent)
chain: MEDIQTNAELKSTQEQSVPAESAAVLNDYSLTKSHEMENVDSGEGPANEDEDIGDDSMKVKDEYSERDENVLKSEPMGNAEEPEIPYSYSREYNEYENIKLERHVVSFDSSRPTSGKMNCDVCGLSCISFNVLMVHKRSHTGERPFQCNQCGASFTQKGNLLRHIKLHTGEKPFKCHLCNYACQRRDALTGHLRTHSVEKPYKCEFCGRSYKQRSSLEEHKERCRTFLQSTDPGDTASAEARHIKAEMGSERALVLDRLASNVAKRKSSMPQKFIGEKRHCFDVNYNSSYMYEKESELIQTRMMDQAINNAISYLGAEALRPLVQTPPAPTSEMVPVISSMYPIALTRAEMSNGAPQELEKKSIHLPEKSVPSERGLSPNNSGHDSTDTDSNHEERQNHIYQQNHMVLSRARNGMPLLKEVPRSYELLKPPPICPRDSVKVINKEGEVMDVYRCDHCRVLFLDYVMFTIHMGCHGFRDPFECNMCGYRSHDRYEFSSHIARGEHRALLK
partner: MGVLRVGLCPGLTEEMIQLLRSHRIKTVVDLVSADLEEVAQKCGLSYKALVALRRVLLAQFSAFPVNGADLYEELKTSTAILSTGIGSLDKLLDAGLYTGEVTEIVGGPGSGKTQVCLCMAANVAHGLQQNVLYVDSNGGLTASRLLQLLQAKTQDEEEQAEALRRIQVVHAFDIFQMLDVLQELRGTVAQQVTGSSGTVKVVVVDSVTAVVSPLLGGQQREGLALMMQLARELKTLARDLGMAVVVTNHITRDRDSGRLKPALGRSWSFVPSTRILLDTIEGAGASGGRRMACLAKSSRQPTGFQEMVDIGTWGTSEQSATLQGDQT
B4: Keratin-associated protein 3-2 (Homo sapiens), Q9BYR7 (parent)
chain: MDCCASRSCSVPTGPATTICSSDKSCRCGVCLPSTCPHTVWLLEPICCDNCPPPCHIPQPCVPTCFLLNSCQPTPGLETLNLTTFTQPCCEPCLPRGC
B5: Probable splicing factor YJU2B (Homo sapiens), P13994 (parent)
chain: MGERKGVNKYYPPDFNPEKHGSLNRYHNSHPLRERARKLSQGILIIRFEMPYNIWCDGCKNHIGMGVRYNAEKKKVGNYYTTPIYRFRMKCHLCVNYIEMQTDPANCDYVIVSGAQRKEERWDMADNEQVLTTEHEKKQKLETDAMFRLEHGEADRSTLKKALPTLSHIQEAQSAWKDDFALNSMLRRRFREKKKAIQEEEERDQALQAKASLTIPLVPETEDDRKLAALLKFHTLDSYEDKQKLKRTEIISRSWFPSAPGSASSSKVSGVLKKLAQSRRTALATSPITVGDLGIVRRRSRDVPESPQHAADTPKSGEPRVPEEAAQDRPMSPGDCPPETTETPKCSSPRGQEGSRQDKPLSPAGSSQEAADTPDTRHPCSLGSSLVADYSDSESE
partner: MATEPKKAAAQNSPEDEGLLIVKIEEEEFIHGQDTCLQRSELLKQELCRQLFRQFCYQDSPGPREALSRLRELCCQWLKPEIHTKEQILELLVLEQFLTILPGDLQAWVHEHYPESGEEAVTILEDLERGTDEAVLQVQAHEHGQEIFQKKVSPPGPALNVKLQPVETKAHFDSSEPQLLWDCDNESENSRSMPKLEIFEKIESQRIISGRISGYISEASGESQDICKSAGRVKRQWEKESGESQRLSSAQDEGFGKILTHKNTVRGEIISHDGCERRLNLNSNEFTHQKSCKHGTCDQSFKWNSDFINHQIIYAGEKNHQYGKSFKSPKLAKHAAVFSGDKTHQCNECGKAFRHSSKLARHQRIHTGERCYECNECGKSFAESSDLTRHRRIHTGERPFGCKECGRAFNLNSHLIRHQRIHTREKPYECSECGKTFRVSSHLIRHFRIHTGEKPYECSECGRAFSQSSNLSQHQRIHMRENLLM

Variants of: B1
Conditions: with cdc7_human CDC7, O00311

| Variant | effect of a mutation on the interaction |
| --- | --- |
| L306I | with no effect |

Variants of: B2
Conditions: with thap8_human THAP8, Q8NA92

| Variant | effect of a mutation on the interaction |
| --- | --- |
| S688L | with no effect |
| R8Q | with no effect |

Variants of: B3
Conditions: with ra51d_human RAD51D

| Variant | effect of a mutation on the interaction |
| --- | --- |
| N119D | with no effect |
| A24V | with no effect |

Variants of: B4
Conditions: with yipf3_human YIPF3, Q9GZM5
Chain of yipf3_human YIPF3, Q9GZM5 (Q9GZM5 whole entry): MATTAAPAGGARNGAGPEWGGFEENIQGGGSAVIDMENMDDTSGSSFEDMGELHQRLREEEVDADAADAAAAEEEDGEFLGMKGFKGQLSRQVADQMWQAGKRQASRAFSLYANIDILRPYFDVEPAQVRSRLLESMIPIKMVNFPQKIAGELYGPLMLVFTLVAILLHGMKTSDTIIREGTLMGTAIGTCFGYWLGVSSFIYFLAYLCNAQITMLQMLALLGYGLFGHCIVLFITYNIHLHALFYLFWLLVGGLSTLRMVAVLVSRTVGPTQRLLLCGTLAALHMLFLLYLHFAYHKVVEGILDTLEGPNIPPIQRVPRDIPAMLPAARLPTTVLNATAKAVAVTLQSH

| Variant | effect of a mutation on the interaction |
| --- | --- |
| R27C | with no effect |
| S8G | with no effect |

Variants of: B4
Conditions: with hxa1_human HOXA1, P49639
Chain of hxa1_human HOXA1, P49639 (P49639 whole entry): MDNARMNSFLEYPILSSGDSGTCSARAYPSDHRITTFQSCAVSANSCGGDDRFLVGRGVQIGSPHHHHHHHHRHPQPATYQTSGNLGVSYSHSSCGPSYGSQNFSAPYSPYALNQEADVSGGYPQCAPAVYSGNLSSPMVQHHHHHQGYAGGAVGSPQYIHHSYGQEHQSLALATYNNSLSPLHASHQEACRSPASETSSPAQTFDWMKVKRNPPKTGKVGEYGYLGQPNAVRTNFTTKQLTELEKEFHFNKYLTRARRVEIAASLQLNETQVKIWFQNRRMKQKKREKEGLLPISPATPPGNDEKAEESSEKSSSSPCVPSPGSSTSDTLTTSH

| Variant | effect of a mutation on the interaction |
| --- | --- |
| R27C | with no effect |
| S8G | with no effect |

Variants of: B4
Conditions: with otx1_human OTX1, P32242
Chain of otx1_human OTX1, P32242 (P32242 whole entry): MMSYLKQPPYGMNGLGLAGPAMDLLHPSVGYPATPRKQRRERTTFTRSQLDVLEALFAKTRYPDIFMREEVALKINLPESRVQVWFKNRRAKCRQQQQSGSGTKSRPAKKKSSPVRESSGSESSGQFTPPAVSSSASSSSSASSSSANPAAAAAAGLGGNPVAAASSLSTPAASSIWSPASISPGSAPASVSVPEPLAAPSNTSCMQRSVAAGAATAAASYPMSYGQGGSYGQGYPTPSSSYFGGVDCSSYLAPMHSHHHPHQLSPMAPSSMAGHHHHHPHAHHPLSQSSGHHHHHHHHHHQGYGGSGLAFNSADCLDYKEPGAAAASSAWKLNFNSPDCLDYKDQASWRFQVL

| Variant | effect of a mutation on the interaction |
| --- | --- |
| R27C | with no effect |
| S8G | with no effect |

Variants of: B5
Conditions: with zn165_human ZNF165, P49910

| Variant | effect of a mutation on the interaction |
| --- | --- |
| S22C | with no effect |
